Experimental data published in the Immune Epitope Database (IEDB).

Columns and labels:
HLA-B*39:01 = assay: IEDB peptide-MHC binding, purified MHC/competitive/fluorescence; filed as Kd, often an IC50 or EC50 that approximates it; ≥ and ≤ were set here for values at or beyond the usual limits of such assays
HLA-B*57:01 = assay: as above
HLA-B*51:01 = assay: as above
HLA-A*02:11 = assay: as above
HLA-B*18:01 = assay: as above
HLA-B*46:01 = assay: as above
HLA-A*24:03 = assay: as above
HLA-A*03:01 [1] = assay: as above
HLA-B*27:03 = assay: as above
HLA-B*15:01 [2] = assay: as above
HLA-A*02:01 [3] = assay: as above
HLA-A*26:01 = assay: as above
HLA-A*29:02 = assay: as above
HLA-A*02:12 = assay: as above
HLA-A*68:02 = assay: as above
HLA-A*02:16 = assay: as above
HLA-A*02:03 = assay: as above
HLA-A*69:01 = assay: as above
HLA-A*02:19 = assay: as above
HLA-B*08:01 = assay: IEDB peptide-MHC binding, purified MHC/competitive/fluorescence; ≥ and ≤ were set here for values at or beyond the usual limits of such assays; settings: source organism: Zaire ebolavirus
HLA-B*07:02 = assay: as above; settings: source organism: Zaire ebolavirus
HLA-A*03:01 [4] = assay: as above; settings: source organism: Zaire ebolavirus
HLA-B*15:01 [5] = assay: as above; settings: source organism: Zaire ebolavirus
HLA-A*02:01 [6] = assay: as above; settings: source organism: Zaire ebolavirus
HLA-A*11:01 = assay: as above; settings: source organism: Zaire ebolavirus
HLA-A*80:01 = assay: IEDB peptide-MHC binding, purified MHC/direct/fluorescence; filed as Kd, often an IC50 or EC50 that approximates it; ≥ and ≤ were set here for values at or beyond the usual limits of such assays; settings: source organism: Bacillus anthracis
HLA-A*01:01 = assay: as above; settings: source organism: Bacillus anthracis
[7] = source organism: Burkholderia vietnamiensis G4
[8] = source organism: Burkholderia pseudomallei 91
[9] = source organism: Rickettsia sibirica 246
[10] = source organism: Listeria monocytogenes J0161

Sequence: PLFKRGWRL
- Kd (HLA-B*39:01; [7]): ≥ 20 µM
- Kd (HLA-B*57:01; [7]): ≥ 20 µM
- Kd (HLA-B*51:01; [7]): ≥ 20 µM
- Kd (HLA-A*02:11; [7]): 0.0285 µM
- Kd (HLA-B*18:01; [7]): ≥ 20 µM
- Kd (HLA-B*46:01; [7]): ≥ 20 µM
- Kd (HLA-A*24:03; [7]): ≥ 20 µM
- Kd (HLA-A*03:01 [1]; [7]): ≥ 20 µM
- Kd (HLA-B*27:03; [7]): ≥ 20 µM
- Kd (HLA-B*15:01 [2]; [7]): ≥ 20 µM
- Kd (HLA-A*02:01 [3]; [7]): 0.199 µM
- Kd (HLA-A*26:01; [7]): ≥ 20 µM
- Kd (HLA-A*29:02; [7]): ≥ 20 µM

Sequence: RAYAAMHLW
- Kd (HLA-B*39:01; [8]): ≥ 20 µM
- Kd (HLA-A*02:12; [8]): ≥ 20 µM
- Kd (HLA-A*68:02; [8]): ≥ 20 µM
- Kd (HLA-B*57:01; [8]): 0.31 µM
- Kd (HLA-A*02:16; [8]): ≥ 20 µM
- Kd (HLA-A*02:11; [8]): ≥ 20 µM
- Kd (HLA-B*46:01; [8]): ≥ 20 µM
- Kd (HLA-A*02:03; [8]): ≥ 20 µM
- Kd (HLA-A*03:01 [1]; [8]): ≥ 20 µM
- Kd (HLA-B*27:03; [8]): ≥ 20 µM
- Kd (HLA-A*69:01; [8]): ≥ 20 µM
- Kd (HLA-A*02:01 [3]; [8]): ≥ 20 µM
- Kd (HLA-A*26:01; [8]): ≥ 20 µM
- Kd (HLA-A*02:19; [8]): ≥ 20 µM

Sequence: RFKRTSFFL
- IC50 (HLA-B*08:01): 26.5 µM
- IC50 (HLA-B*07:02): ≥ 215 µM
- IC50 (HLA-A*03:01 [4]): ≥ 504 µM
- IC50 (HLA-B*15:01 [5]): 9.58 µM
- IC50 (HLA-A*02:01 [6]): ≥ 117 µM
- IC50 (HLA-A*11:01): ≥ 390 µM

Sequence: SVHYKFVTK
- Kd (HLA-A*80:01): ≥ 20 µM
- Kd (HLA-A*01:01): ≥ 20 µM

Sequence: VLRACWNEK
- Kd (HLA-A*80:01): ≥ 20 µM
- Kd (HLA-A*01:01): ≥ 20 µM

Sequence: YLKKLDDFY
- Kd (HLA-B*39:01; [9]): ≥ 20 µM
- Kd (HLA-A*02:12; [9]): ≥ 20 µM
- Kd (HLA-A*68:02; [9]): ≥ 20 µM
- Kd (HLA-B*57:01; [9]): ≥ 20 µM
- Kd (HLA-B*51:01; [9]): ≥ 20 µM
- Kd (HLA-A*02:16; [9]): ≥ 20 µM
- Kd (HLA-A*02:11; [9]): ≥ 20 µM
- Kd (HLA-B*18:01; [9]): ≥ 20 µM
- Kd (HLA-B*46:01; [9]): ≥ 20 µM
- Kd (HLA-A*24:03; [9]): ≥ 20 µM
- Kd (HLA-A*03:01 [1]; [9]): ≥ 20 µM
- Kd (HLA-B*27:03; [9]): ≥ 20 µM
- Kd (HLA-A*69:01; [9]): ≥ 20 µM
- Kd (HLA-A*02:01 [3]; [9]): ≥ 20 µM
- Kd (HLA-A*26:01; [9]): ≥ 20 µM
- Kd (HLA-A*02:19; [9]): ≥ 20 µM

Sequence: YNAKRIETV
- Kd (HLA-B*39:01; [10]): ≥ 20 µM
- Kd (HLA-A*02:12; [10]): ≥ 20 µM
- Kd (HLA-B*57:01; [10]): ≥ 20 µM
- Kd (HLA-B*51:01; [10]): ≥ 20 µM
- Kd (HLA-A*02:11; [10]): 0.239 µM
- Kd (HLA-B*18:01; [10]): ≥ 20 µM
- Kd (HLA-B*46:01; [10]): ≥ 20 µM
- Kd (HLA-A*24:03; [10]): ≥ 20 µM
- Kd (HLA-A*02:03; [10]): ≥ 20 µM
- Kd (HLA-A*03:01 [1]; [10]): ≥ 20 µM
- Kd (HLA-B*27:03; [10]): ≥ 20 µM
- Kd (HLA-B*15:01 [2]; [10]): ≥ 20 µM
- Kd (HLA-A*02:01 [3]; [10]): ≥ 20 µM
- Kd (HLA-A*26:01; [10]): ≥ 20 µM
- Kd (HLA-A*02:19; [10]): ≥ 20 µM
- Kd (HLA-A*29:02; [10]): ≥ 20 µM
